The values below come from patent US10300024B2, “Proteinoid compounds, process of preparing same and uses thereof” (Bar-Ilan University, priority 2015, dated 2019).

Series [1] is described as follows: Photostability under xenon lamp illumination. Type of series: physicochemical. The settings on record: continuous illumination, 20 min. The protocol: An aqueous solution of ICG ([…]) in PBS was prepared, and the fluorescence intensity with λex set at 780 nm and λem set at 800 nm was measured. A dispersion of NIR fluorescent P(EF-PLLA) nanoparticles in PBS was prepared, and diluted to give a similar fluorescence intensity to the dye at the same wavelengths. The excitation and emission slits were opened to 20 nm and 5 nm, respectively. Each of the samples was illuminated continuously with a xenon lamp, and the fluorescence intensity was measured over a period of 20 min by a Cary Eclipse fluorescence spectrophotometer (Agilent Technologies Inc.). Intensity values were normalized for comparison.

The conditions of series [2]: cited from earlier work.
For series [3], the system named is HCT116 human colon cancer cells. Description: XTT cell viability, HCT116. Format: cell-based. As to the method: HCT116 human colon cancer cells were treated with 0.01 mg/mL NPs, hollow or containing 1.66 μg Dox, non-conjugated and conjugated to 35 ng TRAIL. Free Dox, free TRAIL and PBS served as control groups. Absorption was measured for all samples, each in six, with TECAN spectrophotometer to determine the cell viability. […] It was chosen to continue with the TRAIL-PEG-Dox NPs, as PEGylation modifies the physical and chemical properties of the drug, and can decrease immunogenicity and improve drug solubility.

`CC1(C)C(/C=C/C=C/C=C/C=C2\N(CCCCS(=O)(=O)O)c3ccc4ccccc4c3C2(C)C)=[N+](CCCCS(=O)(=O)[O-])c2ccc3ccccc3c21` [free ICG, indocyanine green]: the “fluorescence intensity during illumination” value in series [1] is recorded as “decreased significantly”.

As for `N[C@@H](Cc1c[nH]cn1)C(=O)O` [histidine], in series [2], the “pKa of α-amine group” value is reported as 9.33.

B1: PEG-TRAIL NPs: hollow NPs (without Dox) conjugated to TRAIL via PEG (conjugate, UniProt P50591 1-281, looked up)
Tumor necrosis factor ligand …: MAMMEVQGGPSLGQTCVLIVIFTVLLQSLCVAVTYVYFTNELKQMQDKYSKSGIACFLKEDDSYWDPNDEESMNSPCWQVKWQLRQLVRKMILRTSEETISTVQEKQQNISPLVRERGPQRVAAHITGTRGRSNTLSSPNSKNEKALGRKINSWESSRSGHSFLSNLHLRNGELVIHEKGFYYIYSQTYFRFQEEIKENTKNDKQMVQYIYKYTSYPDPILLMKSARNSCWSKDAEYGLYSIYQGGIFELKENDRIFVSVTNEHLIDMDHEASFFGAFLVG
modifications: PEG-linked to hollow nanoparticles
Consider B1, for which, in series [3] (0.01 mg/mL NPs, 24 h and 72 h), the toxic effect entry was “did not have a toxic effect”.

B2: free TRAIL: TNF-related apoptosis-inducing ligand (protein, UniProt P50591 1-281, looked up)
Tumor necrosis factor ligand …: MAMMEVQGGPSLGQTCVLIVIFTVLLQSLCVAVTYVYFTNELKQMQDKYSKSGIACFLKEDDSYWDPNDEESMNSPCWQVKWQLRQLVRKMILRTSEETISTVQEKQQNISPLVRERGPQRVAAHITGTRGRSNTLSSPNSKNEKALGRKINSWESSRSGHSFLSNLHLRNGELVIHEKGFYYIYSQTYFRFQEEIKENTKNDKQMVQYIYKYTSYPDPILLMKSARNSCWSKDAEYGLYSIYQGGIFELKENDRIFVSVTNEHLIDMDHEASFFGAFLVG
Turning to B2, the cell viability course entry in series [3] (after 72 h) was “recovery in the cell viability”. Besides, the toxicity result in series [3] (over 24 h) was “good toxicity”.
